{"source": "patent US20090143724A1", "about": "“Microprojection Array Immunization Patch and Method” (Alza Corporation, priority 2001, published 2009)", "molecules": {"B1": {"name": "ovalbumin (protein, UniProt P01012 2-386, looked up)", "Ovalbumin": "GSIGAASMEFCFDVFKELKVHHANENIFYCPIAIMSALAMVYLGAKDSTRTQINKVVRFDKLPGFGDSIEAQCGTSVNVHSSLRDILNQITKPNDVYSFSLASRLYAEERYPILPEYLQCVKELYRGGLEPINFQTAADQARELINSWVESQTNGIIRNVLQPSSVDSQTAMVLVNAIVFKGLWEKAFKDEDTQAMPFRVTEQESKPVQMMYQIGLFRVASMASEKMKILELPFASGTMSMLVLLPDEVSGLEQLESIINFEKLTEWTSSNVMEERKIKVYLPRMKMEEKYNLTSVLMAMGITDVFSSSANLSGISSAESLKISQAVHAAHAEINEAGREVVGSAEAGVDAASVSEEFRADHPFLFCIKHIATNAVLFFGRCVSP", "modifications": "FITC label (in one form)", "notes": "model protein antigen (Grade V, SIGMA); FITC-labeled form used for coating and delivery quantitation"}}, "key": {"[1]": {"test": "OVA delivery into hairless guinea pig skin from dry-coated microprojection arrays (skin biopsy fluorometry)", "format": "in vivo", "details": "for Amount of ovalbumin delivered: 2 cm^2 array applied 5 seconds on HGP skin, n=3, mean ± SEM; for OVA delivered into the skin: 2 cm^2 device coated with 20% OVA solution", "source_text": "The treatment sites (lateral area of the thorax) of anesthetized HGPs were cleaned with isopropyl alcohol wipes (70%) and allowed to dry. The skin site was lightly stretched manually when the system was applied using an impact applicator. Following application, the stretching tension was released and the system was left on the skin for the specified period of time. For devices left on skin for more than 5 seconds, the HGPs were wrapped with Vetwrap® (3M, St Paul, Minn.) and individually housed.\nEach HGP received a dry-coated FITC-OVA microprojection array, which was applied as described above. Following system removal, the treated skin sites were thoroughly washed with 70% isopropyl alcohol to remove any residual OVA on the skin surface. The HGPs were euthanized and 8-mm skin biopsies were taken. Each tissue sample was placed in a scintillation vial with 0.1 mL deionized water. Hyamine hydroxide (0.9 mL, 1 M in methanol, JT Baker, Phillipsburg, N.J.) was then added, and the samples were incubated overnight at 60° C. Thereafter, the dissolved material was further diluted with 2 mL hyamine hydroxide/water (9:1), and fluorescence was quantitated by fluorometry and compared to known standards. Background control samples included untreated skin. A minimum replicate of three was used for each experimental condition."}, "[2]": {"system": "hairless guinea pigs (HGPs)", "test": "Immunization of hairless guinea pigs with OVA; anti-OVA IgG titers by ELISA", "format": "in vivo, hairless guinea pig", "details": "for Increase in antibody titer over non-adjuvant controls: about 1 μg OVA with 15 μg GMDP, one week after booster", "protocol": "Baseline blood samples were obtained from all animals before the day of immunization. On the day of immunization, the HGPs were anesthetized and the treatment sites were cleaned with 70% isopropyl alcohol and allowed to dry. For immunizations performed by needle injection, OVA was dissolved in sterile water. Sterile 1-mL syringes with 25-gauge needles (Becton Dickinson, Franklin Lakes, N.J.) were used. ID and SC injections were performed on the dorsal-lateral area of HGPs. The quadriceps muscle of the hind leg was used for IM injection. Microprojection arrays containing dry-coated OVA were applied as described above.\nEach HGP received a primary immunization (Day 0) followed by a secondary (i.e., booster) immunization 4 weeks later with an identical article. After primary immunization, HGPs were anesthetized and blood was collected from the anterior vena cava. The serum samples were evaluated by immunoassay for the presence of anti-OVA antibodies.\nSera from nonimmunized and immunized HGPs were tested for the presence of antibodies to OVA by enzyme-linked immunosorbent assay (ELISA). Briefly, 96-well polystyrene plates (Maxisorp, NUNC, Rochester, N.Y.) were coated with 0.1 muwell of OVA (10 μg/mL in 0.2 M Na bicarbonate/carbonate buffer, pH 9.6) and incubated overnight at 4° C. The plates were washed with PBS-Tween buffer then blocked with 200 μL of PBS/casein (0.5%)/Tween-20 (0.05%) buffer for 1 hour at room temperature. Then the plates were again washed and the test sera were added (100 μL/well at 2- to 5-fold serial dilutions, three replicates, 1 hour at room temperature). After washing, 100 μL peroxidase conjugated goat anti-guinea pig IgG antibody (Jackson ImmunoResearch Laboratories, West Grove, Pa.) was added and incubated for 1 hour at room temperature. After incubation, the plates were washed, 100 μL of substrate (ABTS, Becton Dickinson, Franklin Lakes, N.J.) was added, and they were incubated for 35 minutes at room temperature. Absorbance ([…]) was measured using a SpectraMAX 250 (Molecular Devices Corporation, Sunnyvale, Calif.). The results are expressed as endpoint antibody titers relative to nonimmunized control sera samples.\nResults are presented as the mean with its associated standard error of the mean. Comparison between groups was performed by analysis of variance (ANOVA)."}, "[3]": {"system": "hairless guinea pigs", "test": "Example 2: immunization with tip-coated arrays; anti-ovalbumin IgG titer by ELISA", "format": "in vivo, hairless guinea pig", "details": "tip-coated array patch, 5 seconds wearing; two and three weeks after primary immunization; six animals", "protocol": "Identical microprojection arrays were coated with untagged ovalbumin using a similar methodology. The amount of protein coated on the arrays was evaluated by total protein assay. The target dose of 5 μg of ovalbumin (OVA) was coated with acceptable reproducibility (4.6±0.5 μg) using a 20 wt % OVA coating solution. Immunization studies were conducted with these arrays in one group of six hairless guinea pigs. Systems and system application in animals was the same as described above except that the wearing time in all guinea pigs was 5 seconds. Three additional groups of animals received intradermal injections of 0.1, 1.0, and 10 μg ovalbumin. Blood samples were taken at various time intervals and evaluated for antibody (IgG) titer against ovalbumin by ELISA."}, "[4]": {"test": "Example 2: ovalbumin delivery into hairless guinea pig skin from tip-coated arrays", "format": "in vivo", "details": "for Delivery efficiency: tip-coated arrays", "source_text": "Some of these microprojection arrays were applied to hairless guinea pigs (three animals per group) for evaluation of ovalbumin delivery into the skin. The skin of the animal flank was stretched manually bilaterally ( ? and ? ) at the time of application of the system. […] The system applied comprised an ovalbumin coated microprojection array, adhered to the center of a low density polyethylene film backing with an acrylate adhesive (7 cm^2 disc). Following application, the stretching tension was released and the system was removed after 5 seconds or 1 hour contact with the skin. Following removal of the system, residual drug was thoroughly washed from the skin and an 8 mm skin biopsy was taken at the location of the application. The total amount of ovalbumin delivered in the skin was determined by dissolving the skin biopsy in hyamine hydroxide (1M in methanol). Quantitation was performed by fluorimetry. […] Delivery efficiency was also found to be relatively independent of the thickness of the coating."}, "[5]": {"details": "1 μg OVA, 1 week after booster immunization"}}}
{"molecule": "CC(=O)NC1C(OC2C(CO)OC(O)C(NC(C)=O)C2OC(C)C(=O)N[C@@H](C)C(=O)N[C@H](CCC(N)=O)C(=O)O)OC(CO)C(O)C1O", "note": "(stereo partly drawn) [GMDP, N-acetylglucosamine-(β1-4)-N-acetylmuramyl-L-alanyl-D-glutamine, reference compound]", "values": [{"measurement": "Effect of the adjuvant on the amount of OVA delivered", "setting": "[1]; OVA and GMDP dry-coated arrays, data not shown", "value": "did not significantly affect the amount of OVA delivered"}, {"measurement": "Antibody titers with arrays delivering GMDP and OVA versus OVA alone (dose-sparing)", "setting": "[2]; 1 μg OVA with about 15 μg GMDP by microprojection array", "value": "approached the titer levels achieved with OVA doses of 20 μg or greater in the absence of GMDP"}, {"measurement": "Increase in antibody titer over non-adjuvant controls", "setting": "[2]; ID administration", "value": 250, "unit": "%"}, {"measurement": "Increase in antibody titer over non-adjuvant controls", "setting": "[2]; microprojection array administration", "value": 1300, "unit": "%"}]}
{"molecule": "ovalbumin [model protein antigen (Grade V, SIGMA); FITC-labeled form used for coating and delivery quantitation]", "values": [{"measurement": "Development of anti-ovalbumin IgG antibodies", "setting": "[3]", "value": "all animals dosed with the microprojection array patch had developed anti-ovalbumin IgG antibodies"}, {"measurement": "Antibody level, microprojection array relative to IM injection", "setting": "[2]; [5]", "value": 50, "unit": "fold"}, {"measurement": "Antibody level, microprojection array relative to SC injection", "setting": "[2]; [5]", "value": 10, "unit": "fold"}, {"measurement": "Antibody titer, microprojection array relative to IM needle administration", "setting": "[2]; 5 μg OVA, 1 week after booster immunization", "value": 24, "unit": "fold"}, {"measurement": "Antibody response, microprojection array relative to subcutaneous or intramuscular administration", "setting": "[2]; 1 and 5 μg doses of OVA", "value": "up to 50 fold"}, {"measurement": "Antibody response, microprojection array versus intradermal administration", "setting": "[2]; 1 and 5 μg doses of OVA", "value": "equivalent"}, {"measurement": "Antibody titers, microprojection array versus conventional ID, SC or IM injection", "setting": "[2]; 20 or 80 μg OVA, 1 week after booster immunization", "value": "comparable"}]}
{"molecule": "B1", "values": [{"measurement": "Amount of ovalbumin delivered", "setting": "[1]; 1% coating concentration", "value": "about 1 μg/cm^2"}, {"measurement": "Amount of ovalbumin delivered", "setting": "[1]; 1% coating concentration, listed as Ovalbumin", "value": "0.9 ± 0.1", "unit": "μg/cm^2"}, {"measurement": "OVA delivered into the skin", "setting": "[1]; 30 minute application", "value": 50, "unit": "µg"}, {"measurement": "OVA delivered into the skin", "setting": "[1]; 1 hour application", "value": "approximately 80 μg"}, {"measurement": "Amount of ovalbumin delivered", "setting": "[1]; 5% coating concentration", "value": "~6", "unit": "μg/cm^2"}, {"measurement": "Amount of ovalbumin delivered", "setting": "[1]; 5% coating concentration, listed as Ovalbumin", "value": "5.8 ± 1.4", "unit": "μg/cm^2"}, {"measurement": "Amount of ovalbumin delivered", "setting": "[1]; 20% coating concentration", "value": "~10", "unit": "μg/cm^2"}, {"measurement": "Amount of ovalbumin delivered", "setting": "[1]; 20% coating concentration, listed as Ovalbumin", "value": "9.9 ± 0.6", "unit": "μg/cm^2"}, {"measurement": "Approximate dose delivered", "setting": "[1]; Delivery condition I: 1% coating, wearing time 5 seconds, surface area 1 cm^2", "value": "~1", "unit": "µg"}, {"measurement": "Approximate dose delivered", "setting": "[1]; Delivery condition II: 5% coating, wearing time 5 seconds, surface area 1 cm^2", "value": "~5", "unit": "µg"}, {"measurement": "Approximate dose delivered", "setting": "[1]; Delivery condition III: 20% coating, wearing time 5 seconds, surface area 2 cm^2", "value": "~20", "unit": "µg"}, {"measurement": "Approximate dose delivered", "setting": "[1]; Delivery condition IV: 20% coating, wearing time 3600 seconds, surface area 2 cm^2", "value": "~80", "unit": "µg"}, {"measurement": "OVA delivered from arrays dry-coated with OVA and GMDP", "setting": "[1]; array coated from OVA (1%) and GMDP (10%)", "value": "approximately 1 μg"}, {"measurement": "OVA delivered into hairless guinea pig skin", "setting": "[4]; tip-coated 2 cm^2 arrays, 5 second or 1 hour wearing", "value": "up to 4.5 μg"}, {"measurement": "Delivery efficiency", "setting": "[4]; 5 second wearing time", "value": "higher than 55%"}, {"measurement": "Delivery efficiency", "setting": "[4]; 1 hour wearing time", "value": "> 85", "unit": "%"}, {"measurement": "Seroconversion after primary immunization", "setting": "[2]; 20 or 80 μg OVA by microprojection array, 2 weeks after primary immunization", "value": "seroconverted by 2 weeks after the primary immunization"}, {"measurement": "Seroconversion after booster immunization", "setting": "[2]; OVA by microprojection array, all doses tested (1, 5, 20, 80 μg)", "value": "All animals had seroconverted"}]}
